From the nanobody polyreactivity screen of Harvey et al. (2022)

Test: yeast display, Sf9 membrane polyspecificity reagent, FACS + sequencing; frameworks hold sequencing errors
Outline: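 Genes from sorted yeast were amplified by colony PCR, read by MiSeq 2 × 250 sequencing and filtered on CDR length. These cells carried a synthetic nanobody library in Saccharomyces cerevisiae BJ5465 and were sorted by FACS into low and high (top ~1%) gates on anti-HA and streptavidin fluorescence. Polyreactivity is labelled according to the gate of origin.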

Row | Sequence | polyreactivity (PSR sort gate)
1 | QVHLVESGGGLVQAGGSLRLSCAASGSIFAAYTMGWYRRAPGKERELVAAISVSTVSTYYADSVKGRFTISRDNAKNTVYLQMNSLNPEDTAVYYCNADATDSYPEKDEHDSWGQGTQVTVSS | low polyreactivity
2 | QVHLVESGGGLVQAGGSLRLSCAASGSIFALYAMGWYRQAPGKERELVARISYSGGRTYYADSVKGRFTISRDNAKNTVYLQMNSLKPEDTAVYYCATRSFKWSFVGYDYWGQGTQVTVSS | high polyreactivity
3 | QVHLVESGGGLVQAGGSLRLSCAASGSIFAYYAMGWYRQAPGKEWEVVAAINWRVGRTYYADSVNGRFTISRDNAKNTVYLQMNSLKPEDTAVYYCAAVYRNQYRGSRFDYWGQGTQVTVSS | high polyreactivity
4 | QVHLVESGGGLVQAGGSLRLSCAASGSIFDVNAMGWYRQAPGKERQLVAAISDSGGSTYYADSVKGRFTISRDNAKNTVYLQMNSLKPEDTAVYYCNADWSSYNYYDFDYWGQGTQVTVSS | low polyreactivity
5 | QVHLVESGGGLVQAGGSLRLSCAASGSIFGSNAMGWYRQAPGKERELVAAISRRGGNTYYADSVKGRFTISRDNAKNTVYLQLNSLKPEDTAVYYCAAPKDPDRVQYDYWGQGTQVTVSS | low polyreactivity
6 | QVHLVESGGGLVQAGGSLRLSCAASGSIFGYYTMGWYRQAPGKERELVAGIDFITTSTYYADSVKGRFTISRDNAKNTVSLQMNSQKPEDTAVYYCAAYGPLTGYDYWGQGTQVTVSS | low polyreactivity
7 | QVHLVESGGGLVQAGGSLRLSCAASGSIFHRYAMGWYRQAPGKEREFVAAISRSGGSSNYADSVKGRFTISRDNAKNTVYLQMNSLKPEDTAVYYCAARTVTTGGSRYDYWAQGTQVTVSS | high polyreactivity
8 | QVHLVESGGGLVQAGGSLRLSCAASGSIFNLYGMGWYRQAPGKERELVASITSSGTRTYYADSVKGRFTISRDNAKNTVYLQMNSLKPEDTAVYYCAAGSYLRSNRGYWGQGTQVTVSS | high polyreactivity
9 | QVHLVESGGGLVQAGGSLRLSCAASGSIFPYAMGWYRHAPAKERELVAVISWSGASTYYADSVKGRFTISRDNAKNTVYLQMNSLKQEDTAVYYCAVYRYYKLVHLYGYDYWGQGTQVTVSS | high polyreactivity
10 | QVHLVESGGGLVQAGGSLRLSCAASGSIFVYNAMGWYRQAPGKERELVAAIDTVGSTNYADSVKGRFTISRDNAKNTVYLQMNSLKPEDTAVYYCAVVTTYWSFYEQVIPSNYWGQGTQVTVSS | low polyreactivity
11 | QVHLVESGGGLVQAGGSLRLSCAASGSILLWNTMGWYRQAPGKERELVADIRLSASSTYYADSVKGRFTISRDNAKNTVYLQMNSLKPEDTAVYYCAADEYTPEYCQGYDYWGQGTQVTVSS | low polyreactivity
12 | QVHLVESGGGLVQAGGSLRLSCAASGSISLNAMGWYTQAPGKERELDAGISNDDGTNYADSVKGRFTISRDNAKNPVYLQMNSLKPEDTAVYYCNAERDFVEDYWTYLRYDYWGQGTQVTVSS | low polyreactivity
13 | QVHLVESGGGLVQAGGSLRLSCAASGSTFAKYAMGWYRQAPRKERELDASIRLSGGSTYYADSVKGRFTISRDNAKTTVYLLMNSQKPEDTAVYYCNKQFATFYYGFDYYYWGQGTQVTVSS | low polyreactivity
14 | QVHLVESGGGLVQAGGSLRLSCAASGSTFDAYDMGWYRQAPGKERELVAAISSSGGSTYYADSVKGRFTISRDNAKNTVYLQMNSLKPEDTAVYYCAADWSVWDYDYWGQGTQVTVSS | low polyreactivity
15 | QVHLVESGGGLVQAGGSLRLSCAASGSTFGGNAMGWYRQPPGKERELVAAISSGDSTTYADSVKGRFTISRDNAKNTVYLQMNSLKPEDTAVYYCNADYTDTLTGYFSDEVYHGMDYWGQGTQVTVSS | low polyreactivity
16 | QVHLVESGGGLVQAGGSLRLSCAASGSTFGRNAMGWYRQAPGKERELVAAISRGGGITYYADSVKGRFTISRDNAKNTVYLQMTSLKPEDTAVYYCNAYLSKYFRYDYWGQGTQVTVSS | high polyreactivity
17 | QVHLVESGGGLVQAGGSLRLSCAASGSTFGYYDMGWYRQAPGKERELVATISSGGGTNYADSVKGRFTISRDNAKNTVYLQMNSLKPEDTAVYYCAVTYGSKKARYSIYPRYGYWGQGTQVTVSS | low polyreactivity
18 | QVHLVESGGGLVQAGGSLRLSCAASGSTFRKYAMGWYRKAPGKERELDAAITSSGGRTYYADSVKGRFTISRDNAKNSVYLPLNSLKPEDTAVYYCAAGGPRFYSWRSEYDYWGQGTQVTVLS | high polyreactivity
19 | QVHLVESGGGLVQAGGSLRLSCAASGSTFRYYAMGWYRQAPGKERELVATINRSGGSTYYADSVKGRFTISRDNAKNTVYLQMNSLKPEDTAVYYCAATHYYSHFLWFASNYDYWGQGTQVTVSS | high polyreactivity
20 | QVHLVESGGGLVQAGGSLRLSCAASGSTFVRNVMGWYRQAPGKERELVAAITRSGDTTYYADSVKGRFTISRDNAKNTVYLQMNSLKPEDTAVYHCAKRTFVRRGSIYPIDDYWGQGTQVTVSS | low polyreactivity
21 | QVHLVESGGGLVQAGGSLRLSCAASGSTFVYNTMGWYRQAHGKERELVASISSDGNTDYADSVKGRFTISRDNAKNTVYVQMNSLKPEDTAVYYCAARYYYDWRFVGYDYWGQGTQVTVSS | low polyreactivity
22 | QVHLVESGGGLVQAGGSLRLSCAASGSTFWYNAMRWYRQAPGKERELVASIDDIGGSTYYADSVKGRFTISRDNAKYTVYLQMNSLKPEDTAVYYCAKDYGSSYVTDSDYWGQATQVTVSS | low polyreactivity

Row | Sequence | polyreactivity (PSR sort gate)
23 | QVHLVESGGGLVQAGGSLRLSCAASGSTFYANAMGWYRQAPGTERELVAAITSGGSTNYADSVKGRFTISRDNAKNTFYLQMNSLKPEDTAVYYCAADGGDQERGDYWGQGTQVTVSS | low polyreactivity
24 | QVHLVESGGGLVQAGGSLRLSCAASGSTFYVYAMGWYRQAPGKERELVAAISTSTGNTYYADSVKGRFTISRDNAKNTVYLQMNSLKPEDSAVYDCANSGSSSHYYSWGQGTQVTVSS | low polyreactivity
25 | QVHLVESGGGLVQAGGSLRLSCAASGSTFYYYVMGWYRQAPGKERELVAAINISGGNTYYADSVKGRFTISRDNAKNTVYLKKNSLIPEDTAVYYCAADYRSSRTTEYYYWGQGTQVTVSS | low polyreactivity
26 | QVHLVESGGGLVQAGGSLRLSCAASGSTIDIYDMGWYRQAPGKERELVAAISIGTYADSVKGRFTISRDNAKNTVYLQMNSLKPEDTAVYYCAAQTDTWGYGYDYWGQGTQVTVSS | high polyreactivity
27 | QVHLVESGGGLVQAGGSLRLSCAASGSTIRFNAMGWYRQAPGKERELVAAISGSGGSTYYADSVKGRFTISRDNAKKTVYLQMNSLKPEDTAVYYCAASASSRSYFKSYYWGQGTQVTVSS | high polyreactivity
28 | QVHLVESGGGLVQAGGSLRLSCAASGSTIYYNAMGRYRQAHGKERELVPRISRSGGSTYADSVKGRFTISRDNANNTVYLQMNSLKPEDTAVYYCNADPWWRFDYWGQGTQVTVSS | low polyreactivity
29 | QVHLVESGGGLVQAGGSLRLSCAASGSTKGNNAMGWYRQATGKERELVAAISTRGGSTYYADSVKGRFTISRDNAKNTVYLQMNSLKPEDTAVYYCAADFGQYHGAVRKMDYWGQGTQVTVSS | low polyreactivity
30 | QVHLVESGGGLVQAGGSLRLSCAASGVIFFYYAMGWYRQAPGKESELVAVIDRSGGTTYYADSVKGRFTISRDNAKNTVYLQMNSLKPEDTAVYYCNADDFTYPSGWGFIYDYWGQGTQVTVSS | low polyreactivity
31 | QVHLVESGGGLVQAGGSLRLSCAASGYIFKVNAMGWYRQATRKERELVAAISSDGGSTYADSVKGRFTISRDNAKNTVYLEFYSLKTEDTAVYYCNVDLESERDPPKYVYWGQGTQVTVSS | low polyreactivity
32 | QVHLVESGGGLVQAGGSLRLSCAASGYTFSRNAMGWYRQAPGKERELVASISSRGGSTRYADSVKGRFTISRDNAKNTVYLQMNSLKPEDTAVYYCAVRGLYSPFTYGYWGQGTQVTVSS | high polyreactivity
33 | QVHLVESGGGLVQAGGSLRLSCAASGYTFYANAMGWYRQAPGKEREFVASITWSGGSTYYADSVKGRFTISRDNAKNTVYLQKNSLKPEDTAVYYCAAESWFKYDYWGQGTQVTVSS | low polyreactivity
34 | QVHLVESGGGLVQAGGSLRLSCAASGYTSKTYAMGWYRQAPGKEMELVAAINWGSGSTYYADSVKGRFTISRDNAKNTVYLQMNSLKPEDTAVYYCAAEGYYNWYVGYGYWGQGTQVTVSS | high polyreactivity
35 | QVHLVESGGGLVQAGGSLRLSCAATGSTFPSYTMGWYRQAPGKERELVAVITLRGGSTYYADSVKGRFTISRDNAKNTVYLQMNSLKPEDTAVYYCAANGQLQGWFDMYYWGQGTQVTVSS | low polyreactivity
36 | QVHLVESGGGLVQAGGSLRLSCADSGSTFVAYAMGWYRQAPGKERDLVAAISKSGVRTYYADSVKGRFTISRDNAKNTVYLVMISLKPEDNAVYVCAADSGDLWGPFGYWGQGTQVTVSS | low polyreactivity
37 | QVHLVESGGGLVQAGGSLRLSCAPSGRIFFPYAMGWYRQAPGKEREFVAAIRRSGGSTYYADSVKGRFTISRDNAKNTVYLQMNSLKPEDTAVYYCNAPLKRYGYYKYGYWGQGTQVTVSS | high polyreactivity
38 | QVHLVESGGGLVQAGGSLRLSCASSGRIFEAYAMGWYRQAPGKERELVAAISGSGGSTYYADSVKGRFTISRDNAKNTVYLQMNSLKPEDTAVYYCAARYFVGKGLGYWGQGTQVTVSS | high polyreactivity
39 | QVHLVESGGGLVQAGGSLRLSCASYGRTFGIYAMGWYRQAPGKERELVATISWRGGSTYYADSVKGRFTISRDNAKNTVYLQMNSLKPEDTAVYYCAAETWYSGYTYDYWGQGTQVTVSS | low polyreactivity
40 | QVHLVESGGGLVQAGGSLRLSCDASGITFRRYGMGWYRQAPGKERELVATITSSVGSRTYYADSVKGRFTISRDNAKNTVYLQMNSLKPEDTAVYYCAADHRVYDYEYWGQVTQVTVSS | low polyreactivity
41 | QVHLVESGGGLVQAGGSLRLSCDASGSIFNTYAMGWYRQAPGKESELVATITSGDRTYYADSVNGRFTISRDNAKNSVYLQMNSLNPEDTAVYYCAKRHWFQYRRPDLGRFDYWGQGTQVTVSS | high polyreactivity
42 | QVHLVESGGGLVQAGGSLRLSFAASGIILYDYAMGWNRQAPGKEREMVAGINRSGGITYYADSVKGRFTISRDNAKNTVYFQMNSLIPEDTAVYYCNAVFRYGATRSYRYDYWGQGTQVTVSS | high polyreactivity
43 | QVHLVESGGGLVQAGGSLRLSFAASGSIFYFNAMGWYRQAPGKERELVAAINYSGGSTYYADSVKGRFTISRDNAKNTVYLQRNSLKPEDTAVYYCAAVTYFGWYPYRMEYWGQGTQVTVSS | high polyreactivity
